Measured values: publication PMC7708082

Target: translesion synthesis (TLS) polymerase ι (human (endogenous in K562)) (UniProt Q9UNA4)
Assay: proximity ligation

Sequence of UniProt Q9UNA4 (Q9UNA4 whole entry): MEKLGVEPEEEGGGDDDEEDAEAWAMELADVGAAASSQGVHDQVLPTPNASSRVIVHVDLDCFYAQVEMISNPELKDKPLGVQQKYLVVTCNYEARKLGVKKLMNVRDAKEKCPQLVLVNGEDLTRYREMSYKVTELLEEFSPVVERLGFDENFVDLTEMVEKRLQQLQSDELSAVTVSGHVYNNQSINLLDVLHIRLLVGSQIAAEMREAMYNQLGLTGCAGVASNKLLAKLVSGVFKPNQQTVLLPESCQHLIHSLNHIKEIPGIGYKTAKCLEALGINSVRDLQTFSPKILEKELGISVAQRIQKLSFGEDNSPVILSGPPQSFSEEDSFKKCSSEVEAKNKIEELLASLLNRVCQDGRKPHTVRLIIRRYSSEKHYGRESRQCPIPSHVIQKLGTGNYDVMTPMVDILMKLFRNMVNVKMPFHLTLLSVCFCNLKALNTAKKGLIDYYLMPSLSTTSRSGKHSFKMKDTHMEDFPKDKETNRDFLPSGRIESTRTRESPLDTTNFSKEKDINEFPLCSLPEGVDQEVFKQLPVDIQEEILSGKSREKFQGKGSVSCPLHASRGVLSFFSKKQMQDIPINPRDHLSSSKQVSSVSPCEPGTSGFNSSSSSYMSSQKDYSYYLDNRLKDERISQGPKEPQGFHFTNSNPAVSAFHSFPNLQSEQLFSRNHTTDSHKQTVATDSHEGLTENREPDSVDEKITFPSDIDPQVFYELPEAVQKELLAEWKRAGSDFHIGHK

reduction in PLA-foci numbers against p53(WT): 64%
Substance: p53(22Q/23S) (from UniProt P04637 1-393) (natural protein)
